This data set concerns the molecule itself. Put plainly: cryo-EM structure; single-particle cryo-EM of purified ASOR at pH 7.5 (digitonin, GDN or saposin nanodiscs) and at pH 4.5 (GDN or saposin nanodiscs; sodium citrate added); 5 mM Hepes, 150 mM NaCl; C3 symmetry; resting, activated and desensitized conformations.

What is called stoichiometry N is the number of molecules, sites or subunits per partner or assembly.

B1: human ASOR (TMEM206) proton-activated chloride channel (natural protein)
chain: not shown
notes: full-length human ASOR (TMEM206), UniProt Q9H813; codon-optimised synthetic cDNA; GFP tag removed with PreScission protease; residues left by the cleavage site are not described; also called PAC; acid-sensitive outwardly rectifying channel; not shown: GFP, C-terminal, cleaved
In the case of B1, the “stoichiometry N” value is 3.
